The target of data set [1] is T1, Ms0535 (GntR family, FadR/VanR-like regulator) (Mycobacterium smegmatis mc2 155, UniProt A0QPV8 1-212). Put plainly: EMSA; 0-4 uM protein; only one shifted band. The note with it: protein: recombinant; tags: His-tag (pET28a); chain copies: 2; blunt. For orientation: A gel shift assay detects complexes by their altered migration in electrophoresis.
The target in data set [2] is T1, Ms0535 (GntR family, FadR/VanR-like …). Put plainly: EMSA; 0-4 uM protein. Conditions: protein: recombinant; tags: His-tag (pET28a); chain copies: 2; blunt.

B1: Ms0535p1 (one IR mutated) (dsDNA)
DNA 1: CACACCGTTCCATGCATGTTCTTGCATGCAAGGCGCGCTA
DNA 2: TAGCGCGCCTTGCATGCAAGAACATGCATGGAACGGTGTG
Turning to B1, the binding result in data set [1] is “binds”.

B2: Ms0535p0 (dsDNA)
DNA 1: CACACCGCCTTGCATGCATTCTTGCATGCAAGGCGCGCTA
DNA 2: TAGCGCGCCTTGCATGCAAGAATGCATGCAAGGCGGTGTG
Regarding B2, in data set [2], the binding result is “binds”.

B3: Ms0535p2 (one IR mutated) (dsDNA)
DNA 1: CACACCGCCTTGCATGCATTCTCATGCATGGCCCGCGCTA
DNA 2: TAGCGCGGGCCATGCATGAGAATGCATGCAAGGCGGTGTG
As to B3, in data set [1], the binding result was “binds”.

B4: Ms0535p7 (both IRs mutated) (dsDNA)
DNA 1: CACACCGTTCCATGCATGTTCTCATGCATGGAACGCGCTA
DNA 2: TAGCGCGTTCCATGCATGAGAACATGCATGGAACGGTGTG
Consider B4, for which the binding result in data set [2] is recorded as “no binding”.

The values are drawn from publication PMC4609117.
